The chains are these.
B1: SQT(MDM2)(nt).P6W.cV5 (designed binder)
chain: MIPRLTFEHWWAQLTSGLSEAKPATPEIQEIVDKVKPQLEEKTNETYGKLEAVQYKTQVLASTNYYIKVRAGDNKYMHLKVFNGPPGQNADRVLTGYQVDKNKDDELTGFGKPIPNPLLGLDST
notes: also called P6W peptide in N-terminus of SQT; SQT-MDM2 construct 7
B2: SQT(MDM2)(nt).pDIQ.cV5 (designed binder)
chain: MIPRETFEHWWSQLLSGLSEAKPATPEIQEIVDKVKPQLEEKTNETYGKLEAVQYKTQVLASTNYYIKVRAGDNKYMHLKVFNGPPGQNADRVLTGYQVDKNKDDELTGFGKPIPNPLLGLDST
notes: also called pDIQ peptide in N-terminus of SQT; SQT-MDM2 construct 3
B3: SQT(MDM2)(nt).pMI.cV5 (designed binder)
chain: MIPRTSFAEYWNLLSPGLSEAKPATPEIQEIVDKVKPQLEEKTNETYGKLEAVQYKTQVLASTNYYIKVRAGDNKYMHLKVFNGPPGQNADRVLTGYQVDKNKDDELTGFGKPIPNPLLGLDST
notes: also called pMI peptide in N-terminus of SQT; SQT-MDM2 construct 4
B4: SQT(MDM2)(nt).P7041.cV5 (designed binder)
chain: MIPRLTFEEYWAQLLSAAGLSEAKPATPEIQEIVDKVKPQLEEKTNETYGKLEAVQYKTQVLASTNYYIKVRAGDNKYMHLKVFNGPPGQNADRVLTGYQVDKNKDDELTGFGKPIPNPLLGLDST
notes: also called P7041 peptide in N-terminus of SQT; SQT-MDM2 construct 2
B5: SQT(MDM2)(L2).P3848.cV5 (designed binder)
chain: MIPRGLSEAKPATPEIQEIVDKVKPQLEEKTNETYGKLEAVQYKTQVLASTNYYIKVRAGDNKYMHLKVFNGPLTFEHYWAQLTSPGQNADRVLTGYQVDKNKDDELTGFGKPIPNPLLGLDST
notes: also called P3848 peptide in Loop 2 of SQT; SQT-MDM2 construct 5
B6: SQT(MDM2)(L2).P1E6W.cV5 (designed binder)
chain: MIPRGLSEAKPATPEIQEIVDKVKPQLEEKTNETYGKLEAVQYKTQVLASTNYYIKVRAGDNKYMHLKVFNGPETFEHWWAQLTSPGQNADRVLTGYQVDKNKDDELTGFGKPIPNPLLGLDST
notes: also called P1E6W peptide in Loop 2 of SQT; SQT-MDM2 construct 6

The target in the assay is T1, MDM2 (UniProt Q00987 1-491, limits assumed).
T1 construct: Endogenous MDM2 of HCT116 cells
T1 sequence (Q00987 whole entry): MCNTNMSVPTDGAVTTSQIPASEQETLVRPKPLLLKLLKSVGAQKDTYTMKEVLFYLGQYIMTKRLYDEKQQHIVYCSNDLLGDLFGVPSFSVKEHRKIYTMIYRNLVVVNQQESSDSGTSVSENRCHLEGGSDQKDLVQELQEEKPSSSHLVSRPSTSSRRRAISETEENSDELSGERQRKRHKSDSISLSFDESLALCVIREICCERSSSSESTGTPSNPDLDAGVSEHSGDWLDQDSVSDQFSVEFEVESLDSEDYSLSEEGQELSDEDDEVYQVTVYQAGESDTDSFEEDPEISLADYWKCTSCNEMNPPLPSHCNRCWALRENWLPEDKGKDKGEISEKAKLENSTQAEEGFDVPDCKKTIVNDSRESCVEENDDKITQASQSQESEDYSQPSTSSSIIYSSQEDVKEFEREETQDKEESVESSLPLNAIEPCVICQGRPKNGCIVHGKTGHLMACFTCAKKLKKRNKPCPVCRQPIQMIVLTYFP
Description: anti-V5 immunoprecipitation from transfected HCT116 cell lysates, blot probed with anti-MDM2.
On to B1, for which the binding result is listed as “binds”. On to B2, for which the binding result is given as “binds”. B3: the binding result is “binds”. The value for B4 was “binds”; that for B5 was “binds”; that for B6 was “binds”.
